From the supplement of paper PMC9112550, “Optimization of the antimicrobial peptide Bac7 by deep mutational scanning” (BMC Biology, 2022)

The sequences below were run on Escherichia coli TOP10 (assay: shrunken log2 fold change of peptide-encoding DNA abundance (4.5 h post-induction vs induction); higher = less antimicrobial activity (less host growth inhibition)). Conditions: time post-induction: 4.5 h; library: site-saturation at positions 5, 18, 19, 20.
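Also: peptides expressed intracellularly from a pBAD plasmid library in pooled LB shake-flask culture, induced with 0.3% L-arabinose, DNA abundance read by NGS, three biological replicates, DESeq2 with apeglm shrinkage.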

Row | Sequence | shrunken log2 fold change
1 | RRIRTRPPRLPRPRPRPEYRPRP | 0.0555
2 | RRIRARPPRLPRPRPRPGITPRP | 0.335
3 | RRIRMRPPRLPRPRPRPNSDPRP | 0.0685
4 | RRIRSRPPRLPRPRPRPILWPRP | -0.0848
5 | RRIRYRPPRLPRPRPRPAPDPRP | 0.307
6 | RRIRWRPPRLPRPRPRPTYWPRP | 0.235
7 | RRIRDRPPRLPRPRPRPQPRPRP | 0.458
8 | RRIRKRPPRLPRPRPRPIFNPRP | -0.0554
9 | RRIRHRPPRLPRPRPRPTAQPRP | -0.054
10 | RRIRMRPPRLPRPRPRPPMWPRP | -0.0434
11 | RRIRPRPPRLPRPRPRPDCPPRP | -0.0368
12 | RRIRKRPPRLPRPRPRPKYLPRP | -0.0198
13 | RRIRFRPPRLPRPRPRPRNRPRP | -0.182
14 | RRIRLRPPRLPRPRPRPMYYPRP | -0.0423
15 | RRIRTRPPRLPRPRPRPNLDPRP | 0.0338
16 | RRIRTRPPRLPRPRPRPDCHPRP | -0.0374
17 | RRIRKRPPRLPRPRPRPCTHPRP | -0.14
18 | RRIRFRPPRLPRPRPRPFHGPRP | 0.00193
19 | RRIRKRPPRLPRPRPRPTCPPRP | 0.0404
20 | RRIRSRPPRLPRPRPRPRSAPRP | 0.392
21 | RRIRWRPPRLPRPRPRPSQSPRP | -0.0797
22 | RRIRTRPPRLPRPRPRPEQWPRP | -0.0581
23 | RRIRSRPPRLPRPRPRPCTYPRP | -0.454
24 | RRIRDRPPRLPRPRPRPQLEPRP | -0.0748
25 | RRIRARPPRLPRPRPRPYKAPRP | -0.302

Row | Sequence | shrunken log2 fold change
26 | RRIRWRPPRLPRPRPRPTDGPRP | 0.32
27 | RRIRHRPPRLPRPRPRPTGNPRP | -0.215
28 | RRIRQRPPRLPRPRPRPLSSPRP | -0.055
29 | RRIRDRPPRLPRPRPRPLNLPRP | -0.324
30 | RRIRHRPPRLPRPRPRPPQDPRP | 0.0355
31 | RRIRERPPRLPRPRPRPTRGPRP | 0.0807
32 | RRIRWRPPRLPRPRPRPYEKPRP | -0.139
33 | RRIRRRPPRLPRPRPRPTWCPRP | 0.0593
34 | RRIRVRPPRLPRPRPRPMAQPRP | 0.149
35 | RRIRDRPPRLPRPRPRPDTRPRP | 0.203
36 | RRIRERPPRLPRPRPRPPPEPRP | 0.574
37 | RRIRIRPPRLPRPRPRPSTTPRP | -0.189
38 | RRIRPRPPRLPRPRPRPSTWPRP | 0.0689
39 | RRIRARPPRLPRPRPRPHWNPRP | -0.0187
40 | RRIRERPPRLPRPRPRPASTPRP | -0.527
41 | RRIRSRPPRLPRPRPRPRCRPRP | 0.385
42 | RRIRGRPPRLPRPRPRPFDVPRP | 0.147
43 | RRIRGRPPRLPRPRPRPLGPPRP | 0.456
44 | RRIRFRPPRLPRPRPRPIPRPRP | 0.365
45 | RRIRSRPPRLPRPRPRPPRIPRP | 0.132
46 | RRIRYRPPRLPRPRPRPQMTPRP | 0.0454
47 | RRIRRRPPRLPRPRPRPTDMPRP | -0.0645
48 | RRIRGRPPRLPRPRPRPCVDPRP | 1.17
49 | RRIRLRPPRLPRPRPRPSYWPRP | -0.651
50 | RRIRHRPPRLPRPRPRPRIPPRP | -0.32

Row | Sequence | shrunken log2 fold change
51 | RRIRSRPPRLPRPRPRPCVLPRP | -0.247
52 | RRIRDRPPRLPRPRPRPEATPRP | 1.98
53 | RRIRERPPRLPRPRPRPRYEPRP | -0.276
54 | RRIRERPPRLPRPRPRPHLWPRP | 2.71
55 | RRIRIRPPRLPRPRPRPCVFPRP | -1.22
56 | RRIRGRPPRLPRPRPRPMNCPRP | 0.0167
57 | RRIRDRPPRLPRPRPRPKNSPRP | 0.788
58 | RRIRYRPPRLPRPRPRPICLPRP | -0.219
59 | RRIRTRPPRLPRPRPRPRAPPRP | 0.511
60 | RRIRQRPPRLPRPRPRPCVHPRP | -0.629
61 | RRIRSRPPRLPRPRPRPMPKPRP | 0.0763
62 | RRIRLRPPRLPRPRPRPGPWPRP | 0.325
63 | RRIRYRPPRLPRPRPRPSPCPRP | -0.8
64 | RRIRARPPRLPRPRPRPVMKPRP | -0.205
65 | RRIRWRPPRLPRPRPRPVEDPRP | 0.00386
66 | RRIRFRPPRLPRPRPRPFTHPRP | -0.296
67 | RRIRPRPPRLPRPRPRPFKQPRP | -0.258
68 | RRIRTRPPRLPRPRPRPQYCPRP | -0.0968
69 | RRIRERPPRLPRPRPRPIRYPRP | -0.00369
70 | RRIRWRPPRLPRPRPRPWASPRP | 0.014
71 | RRIRIRPPRLPRPRPRPKYSPRP | -0.216
72 | RRIRERPPRLPRPRPRPMLHPRP | -0.542
73 | RRIRNRPPRLPRPRPRPNGYPRP | -0.0975
74 | RRIRKRPPRLPRPRPRPVVEPRP | 0.274
75 | RRIRGRPPRLPRPRPRPQHNPRP | -0.186

Row | Sequence | shrunken log2 fold change
76 | RRIRFRPPRLPRPRPRPAFSPRP | 0.049
77 | RRIRNRPPRLPRPRPRPSCQPRP | -0.185
78 | RRIRTRPPRLPRPRPRPILLPRP | -0.658
79 | RRIRWRPPRLPRPRPRPGMCPRP | 0.437
80 | RRIRQRPPRLPRPRPRPEDQPRP | 0.0199
81 | RRIRWRPPRLPRPRPRPADRPRP | 0.0754
82 | RRIRLRPPRLPRPRPRPMKDPRP | -0.111
83 | RRIRSRPPRLPRPRPRPWTPPRP | -0.154
84 | RRIRDRPPRLPRPRPRPFHPPRP | -0.106
85 | RRIRIRPPRLPRPRPRPSQEPRP | -0.317
86 | RRIRYRPPRLPRPRPRPNCWPRP | -0.36
87 | RRIRKRPPRLPRPRPRPSARPRP | 0.468
88 | RRIRRRPPRLPRPRPRPNLTPRP | -0.245
89 | RRIRMRPPRLPRPRPRPKEDPRP | 1.82
90 | RRIRTRPPRLPRPRPRPTKCPRP | -0.173
91 | RRIRMRPPRLPRPRPRPDQTPRP | 0.0101
92 | RRIRVRPPRLPRPRPRPSSEPRP | -0.327
93 | RRIRVRPPRLPRPRPRPAEDPRP | 0.0101
94 | RRIRKRPPRLPRPRPRPFGLPRP | -0.0305
95 | RRIRERPPRLPRPRPRPDCNPRP | -0.395
96 | RRIRQRPPRLPRPRPRPCIEPRP | 0.015
97 | RRIRMRPPRLPRPRPRPFTHPRP | -0.107
98 | RRIRQRPPRLPRPRPRPETTPRP | 0.0178
99 | RRIRSRPPRLPRPRPRPKMIPRP | -0.292
100 | RRIRYRPPRLPRPRPRPACYPRP | -0.553

Row | Sequence | shrunken log2 fold change
101 | RRIRERPPRLPRPRPRPQQGPRP | -0.219
102 | RRIRHRPPRLPRPRPRPLIAPRP | -0.261
103 | RRIRARPPRLPRPRPRPDDRPRP | -0.149
104 | RRIRLRPPRLPRPRPRPTQKPRP | 0.194
105 | RRIRGRPPRLPRPRPRPNVPPRP | 0.0564
106 | RRIRFRPPRLPRPRPRPFLVPRP | -0.426
107 | RRIRTRPPRLPRPRPRPFIGPRP | -0.353
108 | RRIRERPPRLPRPRPRPTNIPRP | -0.905
109 | RRIRMRPPRLPRPRPRPTVGPRP | 0.146
110 | RRIRPRPPRLPRPRPRPLCHPRP | -0.139
111 | RRIRLRPPRLPRPRPRPFCEPRP | -0.157
112 | RRIRGRPPRLPRPRPRPCFQPRP | 0.106
113 | RRIRNRPPRLPRPRPRPKDFPRP | -0.000911
114 | RRIRRRPPRLPRPRPRPLLAPRP | 0.887
115 | RRIRERPPRLPRPRPRPSIQPRP | -0.0558
116 | RRIRQRPPRLPRPRPRPKLVPRP | -0.0518
117 | RRIRQRPPRLPRPRPRPWYWPRP | -0.468
118 | RRIRMRPPRLPRPRPRPTEDPRP | 1.9
119 | RRIRDRPPRLPRPRPRPFKGPRP | -0.617
120 | RRIRKRPPRLPRPRPRPGTSPRP | 0.0376
121 | RRIRMRPPRLPRPRPRPDHKPRP | 0.0228
122 | RRIRERPPRLPRPRPRPKYKPRP | -0.369
123 | RRIRVRPPRLPRPRPRPFNQPRP | -0.19
124 | RRIRVRPPRLPRPRPRPHGVPRP | 0.0673
125 | RRIRRRPPRLPRPRPRPRNEPRP | 0.18

Row | Sequence | shrunken log2 fold change
126 | RRIRNRPPRLPRPRPRPCIVPRP | 0.045
127 | RRIRIRPPRLPRPRPRPDMRPRP | -0.0655
128 | RRIRNRPPRLPRPRPRPLWNPRP | -0.511
129 | RRIRERPPRLPRPRPRPIRPPRP | -0.0241
130 | RRIRARPPRLPRPRPRPDLKPRP | 0.523
131 | RRIRSRPPRLPRPRPRPQDFPRP | -0.161
132 | RRIRPRPPRLPRPRPRPSGRPRP | 0.0933
133 | RRIRDRPPRLPRPRPRPQTYPRP | -0.24
134 | RRIRTRPPRLPRPRPRPQVYPRP | -0.168
135 | RRIRERPPRLPRPRPRPSDPPRP | -0.417
136 | RRIRTRPPRLPRPRPRPNYCPRP | -0.0491
137 | RRIRVRPPRLPRPRPRPRLQPRP | -0.000502
138 | RRIRCRPPRLPRPRPRPPYMPRP | -0.288
139 | RRIRVRPPRLPRPRPRPEGMPRP | 0.326
140 | RRIRVRPPRLPRPRPRPLALPRP | -0.181
141 | RRIRSRPPRLPRPRPRPFDVPRP | -0.151
142 | RRIRLRPPRLPRPRPRPVNRPRP | 0.199
143 | RRIRRRPPRLPRPRPRPYHQPRP | -0.0224
144 | RRIRTRPPRLPRPRPRPVWWPRP | 0.423
145 | RRIRTRPPRLPRPRPRPGASPRP | 0.156
146 | RRIRRRPPRLPRPRPRPLIWPRP | 0.192
147 | RRIRVRPPRLPRPRPRPVEFPRP | 0.0286
148 | RRIRPRPPRLPRPRPRPSPRPRP | 0.633
149 | RRIRMRPPRLPRPRPRPQDTPRP | -0.0435
150 | RRIRFRPPRLPRPRPRPTFYPRP | -0.366
